{"source": "paper doi:10.1101/2023.11.02.565309", "about": "(bioRxiv, 2023)", "proteins": {"B1": {"name": "ligand-binding domain of GluK2 (GluK2-LBD), S1-GT-S2 construct (domain or fragment, Rattus norvegicus)", "chain": "NRSLIVTTILEEPYVLFKKSDKPLYGNDRFEGYCIDLLRELSTILGFTYEIRLVEDGKYGAQDDVNGQWNGMVRELIDHKADLAVAPLAITYVREKVIDFSKPFMTLGISILYRKGTPIDSADDLAKQTKIEYGAVEDGATMTFFKKSKISTYDKMWAFMSSRRQSVLVKSNEEGIQRVLTSDYAFLMESTTIEFVTQRNCNLTQIGGLIDSKGYGVGTPMGSPYRDKITIAILQLQEEGKLHMMKEKWWRGNGCP"}}, "biological_target": "the molecule itself", "assay": "crystal structure"}
{"protein": "B1", "values": [{"measurement": "stoichiometry N", "value": 2}]}
